Values joined by “and” are separate entries in the source; they are usually repeats but may differ in a detail not shown here. Identical values can stand only once.
B1: Protein S100-B, P04271 (parent)
chain: MSELEKAMVALIDVFHQYSGREGDKHKLKKSELKELINNELSHFLEEIKEQEVVDKVMETLDNDGDGECDFQEFMAFVAMVTTACHEFFEHE

Variants of: B1
Details: Homo sapiens; pH 7.2; 25 °C; GdnHCl; CD; MOPS 10 mM; KCl 50 mM; reversible: yes; structure 1UWO; whole UniProt chain shown

Row | Variant | denaturant m value | denaturant midpoint (higher = more stable) | unfolding free energy [kcal/mol] | ddG of mutation (higher = less stable)
1 | I12A | 2.75 kcal/mol/M and 1.43 kcal/mol/M | 2.3 M and 4.2 M | 13.2 | –
2 | L4S | 3.3 kcal/mol/M and 2.29 kcal/mol/M | 2.4 M and 3.2 M | 14.5 | –
3 | L4A | 3.49 kcal/mol/M and 1.58 kcal/mol/M | 2.7 M and 3.7 M | 16.1 | –
4 | M8A | 1.36 kcal/mol/M | 3.6 M | – | 0.65 kcal/mol
5 | L4A F15A | 1.67 kcal/mol/M and 0.81 kcal/mol/M | 1.3 M and 1.7 M | 8.39 | 8.94 kcal/mol and 5.16 kcal/mol
6 | L4A I12A | 2.84 kcal/mol/M and 1.77 kcal/mol/M | 2.1 M and 3.3 M | 12.2 | –
7 | F15A | 1.94 kcal/mol/M and 1.08 kcal/mol/M | 1.8 M and 2.3 M | 9.78 | 7.53 kcal/mol and 3.42 kcal/mol
